What was measured:
Assay in all cases: MST
DLA2 ΔE3B = DLA2 ΔE3B (Chlamydomonas reinhardtii, UniProt A0A2K3DW88 32-184+=VD+224-494, internal_change)
DLA2 ΔCat 462 = DLA2 ΔCat 462 (Chlamydomonas reinhardtii, UniProt A0A2K3DW88 32-461)
DLA2 WT (MST) = DLA2 WT (MST) (Chlamydomonas reinhardtii, UniProt A0A2K3DW88 32-494)
DLA2 ΔCat 450 = DLA2 ΔCat 450 (Chlamydomonas reinhardtii, UniProt A0A2K3DW88 32-449)
DLA2 ΔLip = DLA2 ΔLip (Chlamydomonas reinhardtii, UniProt A0A2K3DW88 116-494)
DLA2 ΔCat = DLA2 ΔCat (Chlamydomonas reinhardtii, UniProt A0A2K3DW88 32-269)
PratA = target: T1, PratA (Synechocystis sp. PCC 6803, UniProt P73091 39-383)
T1 sequence: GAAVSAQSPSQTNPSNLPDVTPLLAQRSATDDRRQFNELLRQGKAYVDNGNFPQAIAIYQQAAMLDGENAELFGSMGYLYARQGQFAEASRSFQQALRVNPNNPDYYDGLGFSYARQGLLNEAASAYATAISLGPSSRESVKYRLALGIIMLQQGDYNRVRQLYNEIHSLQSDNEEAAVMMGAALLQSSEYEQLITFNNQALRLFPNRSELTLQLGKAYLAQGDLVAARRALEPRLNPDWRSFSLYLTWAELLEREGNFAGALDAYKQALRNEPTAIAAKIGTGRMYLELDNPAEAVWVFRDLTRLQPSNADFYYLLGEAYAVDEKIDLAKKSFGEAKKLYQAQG

DLA2 ΔCat 315 = DLA2 ΔCat 315 (Chlamydomonas reinhardtii, UniProt A0A2K3DW88 32-314)
DLA2 ΔCat 394 = DLA2 ΔCat 394 (Chlamydomonas reinhardtii, UniProt A0A2K3DW88 32-393)

UUUACGGAGAAAUUAAAACUUUCCCCCCCCCCCCAUAUGACCAUGGAUC (ssRNA) [psbA 5'-UTR C-stretch probe]
Kd (DLA2 ΔE3B): 244 ± 43 nM | Kd (DLA2 ΔCat 462): 625 ± 75 nM | Kd (DLA2 WT (MST)): 248 ± 54 nM

UUUACGGAGAAAUUAAAACUUUAAAAAAAUUAACAUAUGACCAUGGAUC (ssRNA) [psbA 5'-UTR probe native]
Kd (DLA2 ΔE3B): 241 ± 21 nM | Kd (DLA2 ΔCat 450): 466 ± 65 nM | Kd (DLA2 ΔLip): 107 ± 20 nM | Kd (DLA2 ΔCat): 911 ± 60 nM | binding result (PratA): no binding | Kd (DLA2 ΔCat 462): 427 ± 55 nM | Kd (DLA2 WT (MST)): 106 ± 24 nM | Kd (DLA2 ΔCat 315): 607 ± 82 nM | Kd (DLA2 ΔCat 394): 558 ± 77 nM

— publication doi:10.1101/831339
